Laboratory results: patent US12527862B2, “Bactericidal/permeability increasing protein for use in a method of immunization, preferably as an adjuvant in a method of vaccination” (UNIVERSITÄT REGENSBURG, priority 2018, dated 2026)

What was measured:
[1] = tested on: murine dendritic cells (BMDC); test: TNFα ELISA in murine dendritic cells (BMDC); format: cell-based; details: LPS Ec 10 ng/ml or BPI 100 nM, 18 h, ELISA (FIG. 4A)
Experimental: (§1) Generation of BMDM was carried out similarly to BMDCs; MCSF was used instead of GMSCF for differentiation of BMDM. Cells were re-plated on day 1 of culture and harvested on day 5. On day 1, cells were seeded in new plates and harvested on day 5 for the experiments. Cells were stimulated with LPS Ec (10 ng/ml) or BPI (100 nM) for 18 h before supernatants were collected. TNFα levels were determined by ELISA (OPTEIA™ Murine TNFα ELISA Set, BD Bioscience, Heidelberg, Germany).

[2] = tested on: bone marrow derived dendritic cells (BMDCs); test: FACS surface expression of maturation markers/costimulatory molecules on BMDCs; format: cell-based, C57BL/6J mice; details: huBPI 200 nM, 18 h, vs unstimulated cells, n=4 (FIG. 1)
Experimental: BMDCs were generated from the bone marrow of male C57BL/6J mice at the age of approximately 3 to 7 months, which were bred under SPF conditions. BMDCs were generated as previously described. BMDCs were harvested on day 7 by rinsing the dish in order to obtain the non-adherent and loosely-adherent cell fractions.
Cell Stimulation 5×10^4 BMDCs per well were seeded into a tissue-culture-treated 96-well plate in VLE-RPMI 1640 media (10% FCS, 10% Penicillin-Streptomycin, 50 µM β-Mercaptoethanol) and stimulated with 200 nM huBPI.
BMDCs were stimulated with huBPI (200 nM) for 18 h. After the stimulation period, the stimulated and unstimulated cells were incubated with Fc-Block and stained using the indicated antibodies (Table 1) and the respective isotype controls (Table 2). 7-Aminoactinomycin D (7-AAD, #00-6993-50, eBioscience) positive stained cells were excluded from the analysis. Flow cytometry measurement was performed using the instrument BD FACS Canto™ II (BD Bioscience). Data was analyzed using BD FACSDiva™ software v.7.0 (BD Bioscience) as well as FlowJo v.10 (Tree Star).

CD3+CD8+ T cells = test: Intracellular IFNγ staining of CD8+ T cells after supernatant stimulation; format: cell-based, C57BL/6J mice; details: SN BPI vs SN NT, 24h, n=4 (FIG. 13D)
Experimental: Naive CD4+CD25-CD44-CD62L+ T cells were isolated from peripheral lymph nodes and spleen of C57BL/6J mice and purified by MACS and FACS. Naïve CD4+ T cells were cultured in the presence of aCD3 and aCD28 antibodies and dendritic cell-derived supernatant after stimulation with BPI (SN BPI, BPI 200 nM) or after stimulation with ODN 1826 (SN CpG, ODN 1826 20 nM) or after stimulation with BPI and ODN 1826 (SN BPI+CpG, BPI 200 nM, ODN 1826 20 nM) or supernatant without addition of BPI or ODN 1826 (SN NT). On day five, cytokine levels were measured by Luminex. • A. Th1 differentiation as shown by detection of IFNγ (n=3). • B. Th17 differentiation as shown by detection of IL-17 (n=3). • C. […] Lymph node cells were stimulated with aCD3 and aCD28 antibodies and SN BPI or SN NT and incubated for 6h before adding a protein transport inhibitor cocktail and incubating for additional 16h. Cells were fixed and permeabilized and stained for CD3, CD4, CD8, and IFNγ. Lines are connecting the amount of IFNγ-producing CD3+CD8+ T cells after treatment with SN BPI or SN NT for 24h. • Bars represent the means±standard error of the mean. Statistics for comparison were performed with the paired Student's t-test (A to C) or the ratio paired Student's t-test (D).
All described work steps were conducted on ice. […]

[3] = tested on: murine macrophages (BMDM); test: TNFα ELISA in murine macrophages (BMDM); format: cell-based; details: LPS Ec 10 ng/ml or BPI 100 nM, 18 h, ELISA (FIG. 4B)
Experimental: as §1

B1: bactericidal/permeability-increasing protein (protein)
chain: RIKIPDYSDSFKIKHLGKGHYSFYSMDIREFQLPSSQISMVPNVGLKFSISNANIKISGKWKAQKRFLKMSGNFDLSIEGMSISADLKLGSNPTSGKPTITCSSCSSHINSVHVHISKSKVGWLIQLFHKKIESALRNKMNSQVCEKVTNSVSSELQPYFQTLPVMTKIDSVAGINYGLVAPPATTAETLDVQMKGEFYSENHHNPPPFAPPVMEFPAAHDRMVYLGLSDYFFNTAGLVYQEAGVLKMTLRDDMIPKESKFRLTTKFFGTFLPEVAKKFPNMKIQIHVSASTPPHLSVQPTGLTFYPAVDVQAFAVLPNSSLASLFLIGMHTTGSMEVSAESNRLVGELKLDRLLLELKHSNIGPFPVELLQDIMNYIVPILVLPRVNEKLQKGFPLPTPARVQLYNVVLQPHQNFLLFGADVVYK
modifications: labeled with NT647 (Monolith NT Protein Labeling Kit RED-NHS) in the MST experiments
notes: recombinant human BPI, aa32-487 of huBPI with N-terminal HA signal peptide, expressed in HEK293T cells
TNFα secretion by dendritic cells [1]: secrete TNFα | expression of costimulatory receptors CD40, CD80, and CD86 [2]: promotes expression of costimulatory receptors CD40, CD80, and CD86 | activation of CD8+ T cells (IFNγ-producing CD3+CD8+ T cells) (CD3+CD8+ T cells): activation of CD8+ T cells | TNFα secretion by macrophages [3]: not in response to stimulation with BPI
